Assay results reported in paper PMC5916898, “Global profiling of protein–DNA and protein–nucleosome binding affinities using quantitative mass spectrometry”.

Key:
Assay in all cases: pulldown; 150 mM NaCl, 50 mM Tris pH 8, 0.25% NP-40, 1 mM TCEP; 4 C, 2 h; 100 ug HeLa nuclear lysate
Conditions in all cases: protein: extract; label: 5' biotin (strand 1)
ZFHX3 = ZFHX3 (Homo sapiens, UniProt Q15911)
ZBTB20 = target: T1, ZBTB20 (Homo sapiens, UniProt Q9HC78)
T1 sequence: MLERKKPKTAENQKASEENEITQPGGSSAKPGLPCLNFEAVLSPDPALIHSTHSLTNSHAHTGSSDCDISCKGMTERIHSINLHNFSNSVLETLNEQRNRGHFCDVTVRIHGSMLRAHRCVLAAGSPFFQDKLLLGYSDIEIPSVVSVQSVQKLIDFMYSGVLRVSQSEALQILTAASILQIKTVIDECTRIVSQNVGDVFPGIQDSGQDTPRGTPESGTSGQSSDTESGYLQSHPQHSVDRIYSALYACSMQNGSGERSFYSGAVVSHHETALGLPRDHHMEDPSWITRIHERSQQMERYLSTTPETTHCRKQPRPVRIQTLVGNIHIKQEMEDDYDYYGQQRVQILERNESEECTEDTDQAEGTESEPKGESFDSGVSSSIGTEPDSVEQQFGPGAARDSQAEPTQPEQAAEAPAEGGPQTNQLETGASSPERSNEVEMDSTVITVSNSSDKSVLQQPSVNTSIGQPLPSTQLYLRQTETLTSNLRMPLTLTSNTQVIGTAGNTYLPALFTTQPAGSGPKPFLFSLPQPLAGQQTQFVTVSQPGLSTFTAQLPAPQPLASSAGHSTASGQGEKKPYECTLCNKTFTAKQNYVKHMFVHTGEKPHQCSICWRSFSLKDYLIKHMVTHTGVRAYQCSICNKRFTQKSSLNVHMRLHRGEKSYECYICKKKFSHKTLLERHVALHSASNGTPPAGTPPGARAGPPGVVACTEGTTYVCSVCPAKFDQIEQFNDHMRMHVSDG

ZNF787 = ZNF787 (Homo sapiens, UniProt Q6DD87)
ZNF24 = ZNF24 (Homo sapiens, UniProt P17028)
NFAT5 = NFAT5 (Homo sapiens, UniProt O94916)
PAX6 = PAX6 (Homo sapiens, UniProt P26367)
NFATC3 = target: T2, NFATC3 (Homo sapiens, UniProt Q12968)
T2 sequence: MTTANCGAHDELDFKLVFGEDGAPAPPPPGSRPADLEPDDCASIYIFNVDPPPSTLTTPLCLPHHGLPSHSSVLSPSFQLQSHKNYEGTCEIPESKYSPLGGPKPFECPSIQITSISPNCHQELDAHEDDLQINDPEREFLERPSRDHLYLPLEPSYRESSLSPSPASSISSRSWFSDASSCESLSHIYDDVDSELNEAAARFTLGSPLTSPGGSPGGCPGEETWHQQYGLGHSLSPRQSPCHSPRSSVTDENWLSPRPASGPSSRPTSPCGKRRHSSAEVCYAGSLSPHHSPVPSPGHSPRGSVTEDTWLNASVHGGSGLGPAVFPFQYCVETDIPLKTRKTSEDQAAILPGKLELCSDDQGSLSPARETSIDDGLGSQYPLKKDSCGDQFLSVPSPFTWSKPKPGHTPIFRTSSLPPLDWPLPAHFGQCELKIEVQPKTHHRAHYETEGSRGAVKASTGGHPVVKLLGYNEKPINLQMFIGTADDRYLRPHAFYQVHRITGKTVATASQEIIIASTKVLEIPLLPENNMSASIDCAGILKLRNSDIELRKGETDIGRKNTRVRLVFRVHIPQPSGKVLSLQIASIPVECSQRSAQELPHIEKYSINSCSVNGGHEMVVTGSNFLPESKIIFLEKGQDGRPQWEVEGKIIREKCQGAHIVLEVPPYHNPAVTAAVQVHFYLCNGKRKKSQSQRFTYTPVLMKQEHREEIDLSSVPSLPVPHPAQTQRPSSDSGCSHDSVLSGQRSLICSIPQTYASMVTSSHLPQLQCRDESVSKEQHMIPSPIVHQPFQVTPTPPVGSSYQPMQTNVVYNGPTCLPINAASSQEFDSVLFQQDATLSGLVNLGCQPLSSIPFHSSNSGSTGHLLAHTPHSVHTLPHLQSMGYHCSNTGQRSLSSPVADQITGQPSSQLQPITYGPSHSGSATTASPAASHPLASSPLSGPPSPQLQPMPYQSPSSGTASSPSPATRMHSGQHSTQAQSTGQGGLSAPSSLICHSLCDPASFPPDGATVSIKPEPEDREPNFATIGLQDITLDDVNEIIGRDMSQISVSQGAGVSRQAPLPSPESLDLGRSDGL

ZNF787, sequence (Q6DD87 whole entry): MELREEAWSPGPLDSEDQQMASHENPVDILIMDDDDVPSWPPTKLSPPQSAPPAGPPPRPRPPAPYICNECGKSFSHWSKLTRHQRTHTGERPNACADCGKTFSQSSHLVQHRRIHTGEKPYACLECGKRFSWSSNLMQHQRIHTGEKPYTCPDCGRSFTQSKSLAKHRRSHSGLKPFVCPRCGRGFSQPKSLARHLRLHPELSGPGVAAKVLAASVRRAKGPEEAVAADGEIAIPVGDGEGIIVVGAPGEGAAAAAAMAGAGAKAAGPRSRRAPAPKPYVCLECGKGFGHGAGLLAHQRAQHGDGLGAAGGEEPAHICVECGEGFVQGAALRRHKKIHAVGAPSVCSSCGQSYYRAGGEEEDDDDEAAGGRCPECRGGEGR
ZFHX3, sequence (Q15911 whole entry): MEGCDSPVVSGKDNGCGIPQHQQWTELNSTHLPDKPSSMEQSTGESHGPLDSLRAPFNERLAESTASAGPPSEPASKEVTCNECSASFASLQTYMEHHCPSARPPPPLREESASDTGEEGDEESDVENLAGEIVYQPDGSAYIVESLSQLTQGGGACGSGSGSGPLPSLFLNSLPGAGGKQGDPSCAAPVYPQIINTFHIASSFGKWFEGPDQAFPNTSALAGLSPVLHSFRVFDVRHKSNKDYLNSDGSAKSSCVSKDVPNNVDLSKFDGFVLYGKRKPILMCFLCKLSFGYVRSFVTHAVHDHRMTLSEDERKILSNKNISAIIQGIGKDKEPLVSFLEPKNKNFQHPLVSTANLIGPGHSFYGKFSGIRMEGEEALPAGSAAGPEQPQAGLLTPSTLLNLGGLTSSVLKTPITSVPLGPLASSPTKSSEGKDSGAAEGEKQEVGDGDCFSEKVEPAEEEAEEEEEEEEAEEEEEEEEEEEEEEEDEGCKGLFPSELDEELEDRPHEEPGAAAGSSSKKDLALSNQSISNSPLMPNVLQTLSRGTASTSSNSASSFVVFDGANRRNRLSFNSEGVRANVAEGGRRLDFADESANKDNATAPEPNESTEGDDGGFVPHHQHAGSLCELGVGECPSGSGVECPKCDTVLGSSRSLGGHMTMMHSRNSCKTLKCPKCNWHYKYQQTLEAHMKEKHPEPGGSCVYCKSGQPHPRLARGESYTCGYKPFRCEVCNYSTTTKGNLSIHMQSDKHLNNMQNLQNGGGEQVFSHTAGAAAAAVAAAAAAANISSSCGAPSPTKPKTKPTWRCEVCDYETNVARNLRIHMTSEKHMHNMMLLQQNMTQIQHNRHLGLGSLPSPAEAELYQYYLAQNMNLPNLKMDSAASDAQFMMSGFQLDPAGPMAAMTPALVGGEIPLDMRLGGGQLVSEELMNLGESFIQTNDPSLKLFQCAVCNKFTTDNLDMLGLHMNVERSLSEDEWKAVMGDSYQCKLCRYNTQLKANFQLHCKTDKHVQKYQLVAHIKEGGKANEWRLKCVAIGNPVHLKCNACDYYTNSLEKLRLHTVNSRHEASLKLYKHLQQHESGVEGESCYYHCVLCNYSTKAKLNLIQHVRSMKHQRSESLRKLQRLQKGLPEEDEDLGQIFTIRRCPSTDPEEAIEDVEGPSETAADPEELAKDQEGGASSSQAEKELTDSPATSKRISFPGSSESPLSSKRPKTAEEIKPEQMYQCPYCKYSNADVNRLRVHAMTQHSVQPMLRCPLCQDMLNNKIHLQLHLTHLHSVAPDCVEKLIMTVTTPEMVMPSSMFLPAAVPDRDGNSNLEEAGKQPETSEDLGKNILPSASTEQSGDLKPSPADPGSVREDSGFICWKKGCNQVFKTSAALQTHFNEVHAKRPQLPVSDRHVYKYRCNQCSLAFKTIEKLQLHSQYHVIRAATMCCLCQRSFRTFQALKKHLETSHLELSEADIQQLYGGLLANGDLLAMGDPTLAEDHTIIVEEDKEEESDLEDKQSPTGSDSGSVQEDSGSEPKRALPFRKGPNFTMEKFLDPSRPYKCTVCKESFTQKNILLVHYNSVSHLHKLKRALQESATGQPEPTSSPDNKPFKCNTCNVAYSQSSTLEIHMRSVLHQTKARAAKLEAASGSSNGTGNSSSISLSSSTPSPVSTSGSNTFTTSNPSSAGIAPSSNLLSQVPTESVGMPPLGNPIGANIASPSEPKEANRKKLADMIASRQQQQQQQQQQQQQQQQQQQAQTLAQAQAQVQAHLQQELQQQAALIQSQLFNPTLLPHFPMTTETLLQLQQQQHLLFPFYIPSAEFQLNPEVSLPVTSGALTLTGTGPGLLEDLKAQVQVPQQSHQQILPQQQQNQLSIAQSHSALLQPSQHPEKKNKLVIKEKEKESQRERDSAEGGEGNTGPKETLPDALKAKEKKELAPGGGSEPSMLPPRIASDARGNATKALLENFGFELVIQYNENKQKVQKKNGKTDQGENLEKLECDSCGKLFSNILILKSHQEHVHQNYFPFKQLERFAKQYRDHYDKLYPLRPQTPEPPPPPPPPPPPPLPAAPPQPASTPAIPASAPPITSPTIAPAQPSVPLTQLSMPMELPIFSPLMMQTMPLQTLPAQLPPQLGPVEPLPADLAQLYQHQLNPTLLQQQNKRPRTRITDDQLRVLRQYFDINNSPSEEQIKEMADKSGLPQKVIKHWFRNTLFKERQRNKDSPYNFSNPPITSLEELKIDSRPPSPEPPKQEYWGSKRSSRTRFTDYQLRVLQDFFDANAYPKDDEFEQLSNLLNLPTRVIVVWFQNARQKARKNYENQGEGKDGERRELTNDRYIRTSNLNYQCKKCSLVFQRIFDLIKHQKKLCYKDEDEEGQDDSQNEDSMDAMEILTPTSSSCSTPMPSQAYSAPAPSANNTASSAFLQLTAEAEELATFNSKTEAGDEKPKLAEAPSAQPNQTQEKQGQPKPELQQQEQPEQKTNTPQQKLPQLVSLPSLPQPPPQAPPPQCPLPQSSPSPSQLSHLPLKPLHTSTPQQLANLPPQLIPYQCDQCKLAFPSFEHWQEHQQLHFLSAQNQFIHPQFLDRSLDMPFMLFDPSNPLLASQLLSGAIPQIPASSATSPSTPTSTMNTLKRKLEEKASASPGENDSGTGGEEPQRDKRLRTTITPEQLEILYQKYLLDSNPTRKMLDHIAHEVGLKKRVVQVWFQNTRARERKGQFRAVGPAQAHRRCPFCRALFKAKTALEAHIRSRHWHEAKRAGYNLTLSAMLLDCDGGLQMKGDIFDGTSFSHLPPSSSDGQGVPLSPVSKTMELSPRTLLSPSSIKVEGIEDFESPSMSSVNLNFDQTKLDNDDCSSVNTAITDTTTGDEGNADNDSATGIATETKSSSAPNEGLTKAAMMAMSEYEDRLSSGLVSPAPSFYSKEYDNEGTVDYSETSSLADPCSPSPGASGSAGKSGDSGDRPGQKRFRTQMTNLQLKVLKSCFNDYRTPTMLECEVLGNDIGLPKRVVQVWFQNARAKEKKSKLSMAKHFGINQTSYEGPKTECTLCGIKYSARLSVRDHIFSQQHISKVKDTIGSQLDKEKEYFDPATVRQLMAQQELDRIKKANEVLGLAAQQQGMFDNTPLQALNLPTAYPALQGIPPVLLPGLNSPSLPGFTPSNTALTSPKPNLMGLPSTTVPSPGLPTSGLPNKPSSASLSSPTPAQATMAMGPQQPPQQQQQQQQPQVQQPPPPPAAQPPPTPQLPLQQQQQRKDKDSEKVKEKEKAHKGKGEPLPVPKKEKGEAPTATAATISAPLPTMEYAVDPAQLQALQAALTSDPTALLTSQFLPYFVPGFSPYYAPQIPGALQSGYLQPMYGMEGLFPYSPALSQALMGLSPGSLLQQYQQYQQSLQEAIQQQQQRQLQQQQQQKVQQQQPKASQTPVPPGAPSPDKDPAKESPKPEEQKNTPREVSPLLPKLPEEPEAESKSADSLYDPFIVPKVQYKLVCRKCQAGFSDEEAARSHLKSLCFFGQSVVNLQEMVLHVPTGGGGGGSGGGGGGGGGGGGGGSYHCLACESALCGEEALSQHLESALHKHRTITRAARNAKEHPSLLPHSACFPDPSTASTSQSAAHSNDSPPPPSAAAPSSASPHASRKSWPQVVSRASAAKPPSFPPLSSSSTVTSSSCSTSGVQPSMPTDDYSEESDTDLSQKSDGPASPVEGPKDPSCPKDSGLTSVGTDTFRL
PAX6, sequence (P26367 whole entry): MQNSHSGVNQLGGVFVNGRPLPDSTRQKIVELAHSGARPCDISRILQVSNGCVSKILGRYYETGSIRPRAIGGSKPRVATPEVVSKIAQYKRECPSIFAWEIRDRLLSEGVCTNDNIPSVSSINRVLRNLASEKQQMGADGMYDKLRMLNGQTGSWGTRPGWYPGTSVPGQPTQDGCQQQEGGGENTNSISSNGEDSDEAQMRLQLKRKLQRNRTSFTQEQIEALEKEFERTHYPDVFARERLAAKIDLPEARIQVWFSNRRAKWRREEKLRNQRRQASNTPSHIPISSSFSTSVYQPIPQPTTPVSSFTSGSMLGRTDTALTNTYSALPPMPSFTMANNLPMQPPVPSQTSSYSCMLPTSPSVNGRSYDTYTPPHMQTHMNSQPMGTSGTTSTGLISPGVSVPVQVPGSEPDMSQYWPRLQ
ZNF24, sequence (P17028 whole entry): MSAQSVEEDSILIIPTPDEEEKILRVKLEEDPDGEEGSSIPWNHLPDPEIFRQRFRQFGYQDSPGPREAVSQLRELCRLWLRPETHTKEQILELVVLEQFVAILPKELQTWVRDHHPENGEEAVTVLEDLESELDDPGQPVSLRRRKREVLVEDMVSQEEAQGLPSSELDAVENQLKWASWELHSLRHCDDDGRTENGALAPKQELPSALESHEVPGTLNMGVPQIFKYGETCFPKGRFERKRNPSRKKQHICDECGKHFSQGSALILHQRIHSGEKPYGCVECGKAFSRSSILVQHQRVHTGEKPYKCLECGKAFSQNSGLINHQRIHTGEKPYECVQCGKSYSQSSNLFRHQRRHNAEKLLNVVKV

B1: TATA-box (dsDNA)
DNA 1: GCGGCGCTCTATATAAGTGGGCAGTG
DNA 2: CACTGCCCACTTATATAGAGCGCCGC
ZFHX3
  apparent K (half saturation): 289 nM
ZBTB20
  apparent K (half saturation): 98.7 nM

B2: CTCF (dsDNA)
DNA 1: TCAGAGTGGCGGCCAGCAGGGGGCGCCCTTGCCAGA
DNA 2: TCTGGCAAGGGCGCCCCCTGCTGGCCGCCACTCTGA
ZNF787
  apparent K (half saturation): 370 nM
ZNF24
  apparent K (half saturation): 388 nM

B3: TEAD (dsDNA)
DNA 1: TCGGGACCCAGGCCTGGAATGTTTCCACC
DNA 2: GGTGGAAACATTCCAGGCCTGGGTCCCGA
NFAT5
  apparent K (half saturation): 94.6 nM
PAX6
  apparent K (half saturation): 191 nM
NFATC3
  apparent K (half saturation): 46.7 nM
